Laboratory results from US20170114117A1 (OREGON HEALTH AND SCIENCE UNIVERSITY, published 2017).
Ends that are not written are not given here.

B1: mixture of synthetic peptides SEQ ID NO: 2 (α-helix 1) and SEQ ID NO: 4 (α-helix 2) (other)
peptide 1: TEDHVMHLLQNAD
peptide 2: KGSFPENLRHLKNTMET
modifications: also: mixture of two separate peptides, not covalently linked
notes: A mixture of two separate peptides that are not covalently linked; In the hMIF assay the starting concentration was 33 µM of each peptide, 66 µM in total; also called α-helix 1 plus α-helix 2; combined peptides
B2: CD74 α-helix 1 peptide (SEQ ID NO: 2) (peptide)
peptide: TEDHVMHLLQNAD
notes: also called human CD74 α-helix 1; alpha helix 1
B3: CD74 α-helix 2 peptide (SEQ ID NO: 4) (peptide)
peptide: KGSFPENLRHLKNTMET
notes: also called human CD74 α-helix 2; alpha helix 2

Columns and labels:
DRα1-mMOG-35-55 [1] = molecular target: T1, DRα1-mMOG-35-55; experiment: competition ELISA (FIG. 4, left panel), competitor against rmCD74 on DRα1-mMOG-35-55
T1 construct: Coated onto ELISA plates at 1 µg/ml; also called DRa1mMOG-35-55; DRα1-MOG-35-55

[2] = molecular target: T2, human macrophage migration inhibitory factor (MIF) (human, UniProt P14174 2-115); experiment: competition ELISA, hMIF coated, competitor against rmCD74
T2 construct: Coated onto ELISA plates at 0.5 µg/ml; also called hMIF; human MIF
Description: (§1) The ability of α-helix 1 and α-helix 2 peptides to compete with MIF for binding to CD74 was tested. […] Wells were thoroughly washed with PBS/T20 and the mAb PIN.1/anti-mIgG1-HRP (at 0.5 μg/ml in 5% BSA/PBS each) was used to detect the remaining rmCD74 bound to MIF. This mAb recognizes an epitope located at the N-terminus of the protein. Color was developed after adding 50 μl of TMB for 5 minutes and the reaction was stopped with 50 μl of 0.1N HCl. Data was first normalized and then analyzed using GraphPad Prism software. IC₅₀ were calculated by fitting the curve to a competition model involving a two-binding site equation.

DRα1-mMOG-35-55 [3] = molecular target: T1, DRα1-mMOG-35-55; experiment: competition ELISA (FIG. 4), competitor against rmCD74 on DRα1mMOG-35-55
[4] = molecular target: T2, human macrophage migration inhibitory …; experiment: competition ELISA, hMIF coated, competitor against rmCD74 (0.5 µg/ml), two-binding-site fit
Description: as §1

DRα1-mMOG-35-55 [5] = molecular target: T1, DRα1-mMOG-35-55; experiment: competition ELISA (FIG. 4, right panel), competitor against rmCD74 on DRα1-mMOG-35-55
RTL1000 = molecular target: T3, RTL1000; experiment: competition ELISA, RTL1000 coated, competitor against rmCD74 (50 nM), one-binding-site fit
T3 construct: Coated onto ELISA plates at 1 µg/ml; also called recombinant T cell receptor ligand
Description: (§2) Competition of peptides with rmCD74 for binding to RTL1000 or DRα1mMOG35-55 was also tested. Briefly, 50 μl of 1 μg/ml either RTL1000 or DRα1mMOG-35-55 were coated onto ELISA plates at 25° C. for 2 hours. […] Serial 1:2 dilutions of α-helix 1 or α-helix 2 (starting with a concentration of 66 μM, 50 μg/ml each) were prepared in rmCD74 (in BSA/PBS, 50 nM, 0.5 ug/ml) and added to the plate. Competition for the binding site was allowed for 3 hours at 25° C. and then unbound complexes were washed 4 times with PBS/T20. Remaining rmCD74 bound to RTL1000 or DRα1mMOG-35-55 was detected by the PIN.1/anti-mouse IgG1-HRP at 1 ul/ml of both in BSA/PBS for 1.5 hours at 25° C. and visualized by adding TMB substrate (50 μl, according to the manufacturer's instructions). Color development was stopped with 0.1N HCl and the plate was read at 450 nm in an ELISA plate reader. Data were normalized and fitted to a one-binding site model and competitor concentration was plotted against Absorbance at 450 nm to determine the IC₅₀ of each peptide competitor. All data were analyzed using Prism software (GraphPad).

DRα1-mMOG-35-55 [6] = molecular target: T1, DRα1-mMOG-35-55; experiment: competition ELISA, DRα1mMOG-35-55 coated, competitor against rmCD74 (50 nM), one-binding-site fit
Description: as §2

Binder | IC50 (DRα1-mMOG-35-55 [1]) | fold increase of the blocking effect against α-helix 1 alone [2] | IC50 (DRα1-mMOG-35-55 [3]) | IC50 [4] | IC50 (DRα1-mMOG-35-55 [5]) | IC50 (RTL1000) | LogIC50 (RTL1000) | IC50 (DRα1-mMOG-35-55 [6]) | LogIC50 (DRα1-mMOG-35-55 [6])
B1 | 4.71 µM | 10 fold | 4.75 µM | 3.74 µM |  |  |  |  | 
B2 |  |  | 35 µM | 41.8 µM | 35 µM | 6.78 µM | 0.831 | 10.1 µM | 1
B3 |  |  |  | 114 µM | 24.5 µM | 34.3 µM | 1.53 | 167 µM | 2.22
